Experimental data from the supplement of paper PMC11196671.

Tests used:
[1] = MHET released, HPLC; higher = more MHET released; extreme values may be limits of the assay; settings: 24 h
Method: (§1)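 Purified PET hydrolases, 2.5 ug enzyme on 3.5 mg amorphous PET film (aFilm) or crystalline PET powder (cryPow) in 0.5 mL of 50 mM buffer (NaCitrate pH 4.5/5.5, NaPhosphate 6.5/7.5, glycine 8.5/9.5) at 60 or 70 C with shaking for 24 h. Total aromatic product by UV-Vis (260/280 nm, blank-subtracted, normalised per mg enzyme) and individual TPA, MHET, BHET concentrations by UHPLC-DAD at 240 nm; duplicate reactions.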

[2] = terephthalic acid (TPA) released, HPLC; higher = more TPA released; extreme values may be limits of the assay; settings: 24 h
Method: as §1

[3] = PET hydrolysis product formed (TPA+MHET+BHET, UV-Vis) per mg enzyme (mmol/mg enzyme); higher = more PET depolymerisation activity; extreme values may be limits of the assay; settings: 2 h
Method: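 Purified PET hydrolases (His-SUMO cleaved, E. coli C41(DE3) small-scale expression), 2.5 ug enzyme on 3.5 mg amorphous PET film (aFilm) or crystalline PET powder (cryPow) in 0.5 mL of 50 mM buffer (NaCitrate pH 4.5/5.5, NaPhosphate 6.5/7.5, glycine 8.5/9.5) at 60 or 70 C with shaking for 2 h. Soluble aromatic products (TPA+MHET+BHET) were quantified by UV-Vis at 260/280 nm, blank-subtracted against the no-enzyme control, and normalised per mg enzyme; duplicate reactions.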

[4] = as above; settings: 24 h
Method: as §1

SNPYQRGPNPTRSALTADGPFSVRTYTISRLSVSGFGGGVIYYPTGTSLTFGGIAMSPGYTADASSLAWLGRRLASHGFVVLVINTNSRFDGPDSRASQLSAALNYLRTSSPSAVRARLDANRLAVAGHSMGGGGTLRIAEQNPSLKAAVPLTPWHTDKTFNTSVPVLIVGAEADTVAPVSQHAIPFYQNLPSTTPKVYVELCNASHIAPNSPNAAISVYTISWMKLWVDNDTRYRQFLCNVNDPALCDFRTNNRHCQ [LCC-ICCG RIP]
Settings	MHET released, [1] [mM]	PET hydrolysis product formed, [3]	PET hydrolysis product formed, [4]	terephthalic acid, [2] [mM]
PET substrate: aFilm, 60 °C, pH 4.5	0.0627	0	0.029	0.0858
PET substrate: aFilm, 60 °C, pH 5.5	0.19	0.0147	0.0802	0.202
PET substrate: aFilm, 60 °C, pH 6.5	0.477	0.0276	0.202	0.423
PET substrate: aFilm, 60 °C, pH 7.5	1.93	0.0697	0.775	1.96
PET substrate: aFilm, 60 °C, pH 8.5	0.309	0.0326	0.127	0.346
PET substrate: aFilm, 60 °C, pH 9.5	1.34	0.0672	0.684	1.27
PET substrate: aFilm, 70 °C, pH 4.5	0.00485	0	0	0.00741
PET substrate: aFilm, 70 °C, pH 5.5	0.23	0.0525	0.103	0.255
PET substrate: aFilm, 70 °C, pH 6.5	0.352	0.0606	0.181	0.361
PET substrate: aFilm, 70 °C, pH 7.5	2.36	0.151	1.26	1.63
PET substrate: aFilm, 70 °C, pH 8.5	0.217	0.0612	0.1	0.2235
PET substrate: aFilm, 70 °C, pH 9.5	0.896	0.175	0.65	1.66
PET substrate: cryPow, 60 °C, pH 4.5	0.0685	0.011	0.0235	0.0388
PET substrate: cryPow, 60 °C, pH 5.5	0.1986	0.0235	0.0628	0.0956
PET substrate: cryPow, 60 °C, pH 6.5	0.257	0.0304	0.082	0.113
PET substrate: cryPow, 60 °C, pH 7.5	0.292	0.0711	0.113	0.147
PET substrate: cryPow, 60 °C, pH 8.5	0.186	0.0405	0.0714	0.121
PET substrate: cryPow, 60 °C, pH 9.5	0.0905	0.0143	0.0784	0.307
PET substrate: cryPow, 70 °C, pH 4.5	0.0111	0	0	0.00368
PET substrate: cryPow, 70 °C, pH 5.5	0.10965	0.0166	0.0369	0.057
PET substrate: cryPow, 70 °C, pH 6.5	0.2013	0.0257	0.0809	0.0917
PET substrate: cryPow, 70 °C, pH 7.5	0.367	0.045	0.162	0.322
PET substrate: cryPow, 70 °C, pH 8.5	0.164	0.0206	0.0631	0.118
PET substrate: cryPow, 70 °C, pH 9.5	0.0678	0.0257	0.0938	0.4635
